How the values were obtained:
recombinant human TGFβ1 [1] = target: T1, recombinant human TGFβ1 (human, UniProt P01137 279-390); test: radioreceptor assay, inhibition of 125I-TGFβ1 binding to A549 cells; concentration of antibody combining sites
T1 construct: mature; also called TGFbeta1
Protocol: (§1) Cells are seeded at 1-2×10^5 cells/ml/well into the wells of 24-well cluster plates and grown for 24 h in serum-free DMEM. Cell monlayers are washed twice with serum-free DMEM and 0.5 ml binding medium (DMEM/Hams F12 (Sigma D-6421) containing 0.1% (v/v) BSA added to each well.
(§2) Aliqouts of ¹²⁵I-TGFβ1 or TGFβ2 (70-90 TBq/mmol; Amersham International) at 20 pM are preincubated with antibody in binding medium at room temperature for 1 h. Duplicate samples of 0.5 ml of TGFβ/antibody mixtures are then added to the cell monlayers and are incubated at 37° C. for 1-2 h. Control wells contain TGFβ only. Unbound TGFβ is removed by washing 4 times with Hank's balanced salt solution containing 0.1% BSA. Cells are solubilised in 0.8 ml 25 mM Tris HCl pH 7.5, 10% glycerol, 1% Triton X-100 at room temperature for 20 min. The contents of each well are removed and ¹²⁵I measured in a gamma counter.

recombinant human TGFβ1 [2] = target: T1, recombinant human TGFβ1; test: radioreceptor assay, inhibition of 125I-TGFβ1 binding to A549 cells, Example 9
recombinant human TGFβ1 [3] = target: T1, recombinant human TGFβ1; test: BIACore, scFv
Protocol: (§3) The off-rates for binding to TGFβ1 or TGFβ2 of the single chain Fv fragments described in this example were determined as described by Karlsson et al (R. Karlsson et al, J. Immunol. Methods 145, 229-240, 1991). The results obtained are shown in Table 2, together with dissociation constants for those which have been determined.

recombinant human TGFβ2 [4] = target: T2, recombinant human TGFβ2 (human, UniProt P61812 303-414); test: radioreceptor assay, inhibition of 125I-TGFβ2 binding to A549 cells; concentration of antibody combining sites
T2 construct: mature; also called TGFbeta2; rhTGFβ2
T2 sequence (looked up): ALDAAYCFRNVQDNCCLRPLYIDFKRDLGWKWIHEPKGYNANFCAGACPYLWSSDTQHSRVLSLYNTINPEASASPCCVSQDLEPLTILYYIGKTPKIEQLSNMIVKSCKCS
Protocol: as §1, §2

recombinant human TGFβ2 [5] = target: T2, recombinant human TGFβ2; test: BIAcore 2000, antigen immobilised, antibody as analyte
Protocol: The immobilisation of ligand is automated by the BIACore 2000 machine, and all steps are carried out in the autosampler or in the flowcell, on the dextran surface of the chip. The buffer used throughout the immobilisation procedure, and the analysis of samples is Hepes-buffered saline (HBS) with a surfactant (Pharmacia Biosensor). The chips (Pharmacia, CM5), have dextran coating on a thin layer of gold. NHS at 100 mM and EDC at 400 mM are mixed by the autosampler, and then a fixed volume is injected over the flowcell surface. This is followed by an injection of antigen in a suitable buffer. In the case of TGFβ, a surface of the correct density was given by using 25-30 μg/ml solution of TGFβ2 (AMS) OR TGFβ3 (R & D systems) in 10 mM acetate. After injection of the ligand, the chip is blocked using 1M ethanolamine. The total amount of TGFβ bound was assessed from the total increase in resonance units over this period.
(§4) To determine the kinetic parameters, a series of dilutions of the antibody samples was made in HBS from about 500 μg/ml down to less than 1 μg/ml, usually through doubling dilutions. After the antibody has been injected over the antigen surface, the surface is washed with HBS, then regenerated by stripping off the bound antibody with a pulse of 100 mM HCl. At the higher concentrations of antibody the antigen on the chip surface is saturated, and the off rate is determined on washing with buffer in the dissociation phase. For determination of the on-rate, lower concentrations of antibody are used, giving a linear binding phase in the sensorgram, allowing kₒₙ determination.
(§5) 6B1 IgG4 was purified from the GS/NS0 cell line of Example 10 as in Example 2. 6B1 single chain Fv was expressed intracellularly in E. coli, refolded in vitro (using the methodology of WO94/18227), and purified to give a homogeneous product. The values of kₒₙ and koff were determined for 6B1 IgG4 for binding to both TGFβ2 and TGFβ3, and for the single-chain Fv 6B1 for binding to TGFβ2. The dissociation constant was calculated by dividing koff by kₒₙ.

recombinant human TGFβ2 [6] = target: T2, recombinant human TGFβ2; test: cell-based or functional assay
recombinant human TGFβ2 [7] = target: T2, recombinant human TGFβ2; test: BIACore, scFv
Protocol: as §3

recombinant human TGFβ2 [8] = target: T2, recombinant human TGFβ2; test: BIAcore 2000, koff divided by kon
Protocol: as §4, §5

recombinant human TGFβ2 [9] = target: T2, recombinant human TGFβ2; test: BIACore, scFv injected over immobilised antigen
Protocol: (§6) The antibodies were also shown to be specific for TGFβ2 compared to TGFβ1 by relative binding to theBIACore sensor chips coated with the appropriate antigen. TGFβ1 and TGFβ2 were immobilised by amine coupling to Biosensor CM5 sensorchips (Pharmacia) according to the manufacturers instructions. […] The amount of TGFβ bound was assessed as the total increase in resonance units (RUs) over this period.

recombinant human TGFβ1 [10] = target: T1, recombinant human TGFβ1; test: BIACore, scFv injected over immobilised antigen
Protocol: as §6

T1 sequence (P01137 279-390 limits assumed): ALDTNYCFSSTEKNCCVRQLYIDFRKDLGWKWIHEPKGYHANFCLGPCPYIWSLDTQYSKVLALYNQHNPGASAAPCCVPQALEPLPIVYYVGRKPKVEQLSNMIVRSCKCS

B1: 7A3 scFv (scFv)
scFv: QVQLVESGGGVVQPGRSLRLSCAASGFTFSSYGMHWVRQAPGKGLEWVAVISYDGSNKYYADSVKGRFTISRDNSKNTLYLQMNSLRAEDTAVYYCAKTGEYSGYDSSGVDVWGKGTTVTVSSGGGGSGGGGSGGGGSDIVMTQSPDSLAVSLGERATINCKSSQSLLYSYNKMNYLAWYQQKPGQPPKLLINWASTRESGVPDRFSGSGSGTDFTLTISSLQAEDVAVYYCQQYYATPLTFGHGTKVEIKR
notes: Light chain shuffle of 1-B2
- IC50 (recombinant human TGFβ1 [1]): > 100 nM

B2: CS32 scFv (scFv)
scFv: QVQLVQSGGGVVQPGRSLRLSCAASGFTFSSYGMHWVRQAPGKGLEWVAVISYDGSIKYYADSVKGRFTISRDNSKNTLYLQMNSLRAEDTAVYYCARTGEYSGYDTSGVELWGQGTTVTVSSGGGGSGGGGSGGGGSDIVMTQSPDSLAVSLGERATINCKSSQSLLYSYNKMNYLAWYQQKPGQPPKLLINWASTRESGVPDRFSGSGSGTDFTLTISSLQAEDVAVYYCQQYYATPLTFGHGTKVEIKR
- IC50 (recombinant human TGFβ1 [1]): 4.5 nM
- IC50 (recombinant human TGFβ1 [2]): 40 nM
- koff (recombinant human TGFβ1 [3]): 0.0012 s⁻¹

B3: 6B1 scFv (scFv)
scFv: EVQLVESGGGVVQPGRSLRLSCAASGFTFSSYGMHWVRQAPGKGLEWVAVIWYDGSNKYYADSVKGRFTISRDNSKNTLYLQMDSLRAEDTAVYYCGRTLESSLWGQGTLVTVSSGGGGSGGGGSGGGGSSSELTQDPAVSVALGQTVRITCQGDSLRSYYASWYQQKPGQAPVLVIYGKNNRPSGIPDRFSGSSSGNTASLTITGAQAEDEADYYCNSRDSSSTHRGVFGGGTKLTVLG
notes: also called 6B1 single chain Fv
- IC50 (recombinant human TGFβ2 [4]): 0.3 nM
- koff (recombinant human TGFβ2 [5]): 0.000668 s⁻¹
- kon (recombinant human TGFβ2 [5]): 287000 M⁻¹ s⁻¹
- I.C.50 in TF1 assay (neutralisation of TGFβ2 inhibition of TF1 cell proliferation) (recombinant human TGFβ2 [6]): 15 nM
- koff (recombinant human TGFβ2 [7]): 0.0006 s⁻¹
- Kd (recombinant human TGFβ2 [8]): 2.32 nM

B4: 31G9 scFv (scFv)
scFv: QVQLVQSGGGVVQPGRSLRLSCAASGFTFSSYGMHWVRQAPGKGLEWVAVISYDGSIKYYADSVKGRFTISRDNSKNTLYLQMNSLRAEDTAVYYCARTGEYSGYDTSGVELWGQGTTVTVSSGGGGSGGGGSGGGGSDIVMTQSPSTLSASVGDRVTITCRASQGISSWLAWYQQKPGRAPKVLIYKASTLESGVPSRFSGSGSGTDFTLTISSLQPEDFATYYCQQSYSTPWTFGQGTKLEIKR
notes: VH-linker-VL in pCANTAB6; also called 31G9 single chain Fv
- IC50 (recombinant human TGFβ1 [1]): 30 nM
- Kd (recombinant human TGFβ1 [3]): 12 nM
- koff (recombinant human TGFβ1 [3]): 0.0009 s⁻¹

B5: CS39 scFv (scFv)
scFv: QVQLVQSGGGVVQPGRSLRLSCAASGFTFSSYGMHWVRQAPGKGLEWVAVISYDGSIKYYADSVKGRFTISRDNSKNTLYLQMNSLRAEDTAVYYCARTGEYSGYDTSGVELWGQGTTVTVSSGGGGSGGGGSGGGGSDVVMTQSPSSLSASVGDRVTITCRASQGISNYLAWYQQKPGKAPKLLIYKASTLESGVPSRFSGSGSGTEFTLTISSLQPEDFATYYCQQSYSTPRTFGQGTKVDIKR
- IC50 (recombinant human TGFβ1 [1]): ~60 nM
- koff (recombinant human TGFβ1 [3]): 0.0017 s⁻¹

B6: CS37 scFv (scFv)
scFv: QVQLVQSGGGVVQPGRSLRLSCAASGFTFSSYGMHWVRQAPGKGLEWVAVISYDGSIKYYADSVKGRFTISRDNSKNTLYLQMNSLRAEDTAVYYCARTGEYSGYDTSGVELWGQGTTVTVSSGGGGSGGGGSGGGGSEIVLTQSPSSLSASVGDRVTITCRASQGIGDDLGWYQQKPGKAPILLIYGTSTLQSGVPSRFSGSGSGTDFTLTINSLQPEDFATYYCLQDSNYPLTFGGGTRLEIKR
- IC50 (recombinant human TGFβ1 [2]): ~8 nM

B7: 6A5 scFv (scFv)
scFv: EVQLVESGGGVVQPGRSLRLSCAASGFTFSSYGMHWVRQAPGKGLEWVAVIWYDGSNKYYADSVKGRFTISRDNSKNTLYLQMDSLRAEDTAVYYCGRTLESSLWGQGTLVTVSSGGGGSGGGGSGGGGSSSELTQDPAVSVALGQTVRITCQGDSLRSYYASWYQQKPGQAPVLVIYGKNNRPSGIPDRFAGSNSGNTASLTITGAQAEDEADYYCSSRDSSGNHVVFGGGTKLTVLG
notes: also called 6A5 single chain Fv
- IC50 (recombinant human TGFβ2 [4]): 1.5 nM
- increase in resonance units (recombinant human TGFβ2 [9]): 71 RU
- increase in resonance units (recombinant human TGFβ1 [10]): 480 RU
- I.C.50 in TF1 assay (neutralisation of TGFβ2 inhibition of TF1 cell proliferation) (recombinant human TGFβ2 [6]): 8 nM
- Kd (recombinant human TGFβ2 [7]): 0.7 nM
- koff (recombinant human TGFβ2 [7]): 0.00014 s⁻¹

B8: 6H1 scFv (scFv)
scFv: EVQLVESGGGVVQPGRSLRLSCAASGFTFSSYGMHWVRQAPGKGLEWVAVIWYDGSNKYYADSVKGRFTISRDNSKNTLYLQMDSLRAEDTAVYYCGRTLESSLWGQGTLVTVSSGGGGSGGGGSGGGGSDVVMTQSPSSLSASVGDRVTITCRASQGISNYLAWYQQKPGKAPKLLIYKASTLESGVPSRFSGSGSGTEFTLTISSLQPEDFATYYCQQSYSTPRTFGQGTKVDIKR
- IC50 (recombinant human TGFβ2 [4]): 0.22 nM
- increase in resonance units (recombinant human TGFβ2 [9]): 77 RU
- increase in resonance units (recombinant human TGFβ1 [10]): 686 RU
- I.C.50 in TF1 assay (neutralisation of TGFβ2 inhibition of TF1 cell proliferation) (recombinant human TGFβ2 [6]): 1.5 nM
- koff (recombinant human TGFβ2 [7]): 0.0011 s⁻¹

B9: 11E6 IgG (antibody, V domains shown)
VH: EIQLVESGGGVVQPGRSLRLSCAASGFTFSSYAMHWVRQAPAKGLEWVAVISYDGSNKYYADSVKGRFTISRDNSKNTLYLQMNSLRAEDTAVYYCARAGLETTWGQGTLVTVSS
VL: EVVLTQSPSSLSASVGDRVTITCRASQGIGDDLGWYQQKPGKAPILLIYGTSTLQSGVPSRFSGSGSGTDFTLTINSLQPEDFATYYCLQDSNYPLTFGGGTRLEIKR
notes: its construction as a whole antibody is not described
- IC50 (recombinant human TGFβ2 [4]): 1.6 nM

B10: 14F12 scFv (scFv)
scFv: EIQLVESGGGVVQPGRSLRLSCAASGFTFSSYAMHWVRQAPAKGLEWVAVISYDGSNKYYADSVKGRFTISRDNSKNTLYLQMNSLRAEDTAVYYCARAGLETTWGQGTLVTVSSSGGGGGSGGGGSGGGGSSSELTQDPAVSVALGQTVRITCQGDSLRNYYANWYQQKPGQAPVLVIYGKNNRPSGIPDRFSGSSSGNTASLTITGARAEDEGVYYCNSRDSSGAVFGGGTKLTVLG
- IC50 (recombinant human TGFβ2 [4]): 3 nM
- increase in resonance units (recombinant human TGFβ2 [9]): 115 RU
- increase in resonance units (recombinant human TGFβ1 [10]): 616 RU
- I.C.50 in TF1 assay (neutralisation of TGFβ2 inhibition of TF1 cell proliferation) (recombinant human TGFβ2 [6]): 90 nM
- koff (recombinant human TGFβ2 [7]): 0.0021 s⁻¹
